Assay results from publication PMC8319846 (Frontiers in Microbiology, 2021).

How the values were obtained:
[1] = target: native Hla in S. aureus 8325-4 supernatants (Staphylococcus aureus 8325-4 (NCTC 8325 …, UniProt Q2G1X0)); assay: far-Western, overlay or dot blot; conditions: one partner purified
LukF = LukF (Staphylococcus aureus, strain , UniProt Q5FBD2); assay: ELISA; conditions: both partners purified
LukD = LukD (Staphylococcus aureus, strain , UniProt O54082); assay: ELISA; conditions: both partners purified
Sequence of LukD (O54082 27-327): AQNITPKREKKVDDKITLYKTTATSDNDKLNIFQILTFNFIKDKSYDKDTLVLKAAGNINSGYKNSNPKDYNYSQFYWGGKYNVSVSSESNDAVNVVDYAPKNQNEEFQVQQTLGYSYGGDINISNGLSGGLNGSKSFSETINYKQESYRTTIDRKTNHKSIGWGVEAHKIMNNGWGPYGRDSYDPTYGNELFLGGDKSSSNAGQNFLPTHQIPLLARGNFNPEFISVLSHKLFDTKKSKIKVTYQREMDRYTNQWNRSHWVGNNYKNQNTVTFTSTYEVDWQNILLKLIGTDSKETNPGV

HlgA = HlgA (Staphylococcus aureus, strain , UniProt P0A074); assay: ELISA; conditions: both partners purified
Sequence of HlgA (P0A074 30-309): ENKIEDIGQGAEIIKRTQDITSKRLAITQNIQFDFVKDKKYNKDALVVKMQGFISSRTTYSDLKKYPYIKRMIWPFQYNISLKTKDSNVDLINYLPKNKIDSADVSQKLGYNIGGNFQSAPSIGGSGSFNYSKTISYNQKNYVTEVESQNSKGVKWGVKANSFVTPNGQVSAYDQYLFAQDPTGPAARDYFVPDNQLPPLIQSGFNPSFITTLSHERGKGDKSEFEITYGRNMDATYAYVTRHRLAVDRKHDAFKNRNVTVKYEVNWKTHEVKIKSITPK

LukE = LukE (Staphylococcus aureus, strain , UniProt O54081); assay: ELISA; conditions: both partners purified
Sequence of LukE (O54081 29-314): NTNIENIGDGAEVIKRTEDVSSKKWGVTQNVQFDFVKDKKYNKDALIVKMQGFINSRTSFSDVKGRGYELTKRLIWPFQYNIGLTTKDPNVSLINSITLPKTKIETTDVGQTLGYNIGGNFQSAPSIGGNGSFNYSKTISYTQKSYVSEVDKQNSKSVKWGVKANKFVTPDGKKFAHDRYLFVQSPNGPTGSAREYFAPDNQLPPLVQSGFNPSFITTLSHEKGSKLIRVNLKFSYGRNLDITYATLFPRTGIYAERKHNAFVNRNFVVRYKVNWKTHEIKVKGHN

HlgC = HlgC (Staphylococcus aureus, strain , UniProt Q07227); assay: ELISA; conditions: both partners purified
Sequence of HlgC (Q07227 30-315): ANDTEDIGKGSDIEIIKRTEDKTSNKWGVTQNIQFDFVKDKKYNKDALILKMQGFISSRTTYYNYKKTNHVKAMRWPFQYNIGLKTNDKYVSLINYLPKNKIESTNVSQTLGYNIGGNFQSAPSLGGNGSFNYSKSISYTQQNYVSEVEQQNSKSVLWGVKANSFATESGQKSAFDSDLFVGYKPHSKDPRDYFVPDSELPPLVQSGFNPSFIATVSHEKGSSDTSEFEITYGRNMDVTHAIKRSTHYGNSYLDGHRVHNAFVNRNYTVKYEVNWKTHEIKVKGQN

HlgB = HlgB (Staphylococcus aureus, strain , UniProt P0A077); assay: ELISA; conditions: both partners purified
Sequence of HlgB (P0A077 26-325): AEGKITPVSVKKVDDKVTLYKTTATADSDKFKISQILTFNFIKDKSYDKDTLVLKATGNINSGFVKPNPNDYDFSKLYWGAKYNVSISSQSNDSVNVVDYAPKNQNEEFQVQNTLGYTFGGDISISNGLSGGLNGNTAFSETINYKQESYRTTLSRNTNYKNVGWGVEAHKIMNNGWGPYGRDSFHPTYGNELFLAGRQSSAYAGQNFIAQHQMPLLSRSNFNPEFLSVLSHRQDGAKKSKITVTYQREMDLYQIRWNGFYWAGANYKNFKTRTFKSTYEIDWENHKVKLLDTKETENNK

Hlb = Hlb (Staphylococcus aureus, strain , UniProt P09978); assay: ELISA; conditions: both partners purified
Sequence of Hlb (P09978 35-330): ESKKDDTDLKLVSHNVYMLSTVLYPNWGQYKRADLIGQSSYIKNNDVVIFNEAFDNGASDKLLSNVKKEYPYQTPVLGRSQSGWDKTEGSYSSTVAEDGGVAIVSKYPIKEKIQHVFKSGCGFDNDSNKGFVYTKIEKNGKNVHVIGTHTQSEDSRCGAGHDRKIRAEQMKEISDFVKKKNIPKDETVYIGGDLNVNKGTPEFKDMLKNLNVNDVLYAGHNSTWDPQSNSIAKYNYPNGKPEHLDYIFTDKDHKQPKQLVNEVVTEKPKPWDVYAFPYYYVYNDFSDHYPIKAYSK

Sequence of LukF (P31715 26-323): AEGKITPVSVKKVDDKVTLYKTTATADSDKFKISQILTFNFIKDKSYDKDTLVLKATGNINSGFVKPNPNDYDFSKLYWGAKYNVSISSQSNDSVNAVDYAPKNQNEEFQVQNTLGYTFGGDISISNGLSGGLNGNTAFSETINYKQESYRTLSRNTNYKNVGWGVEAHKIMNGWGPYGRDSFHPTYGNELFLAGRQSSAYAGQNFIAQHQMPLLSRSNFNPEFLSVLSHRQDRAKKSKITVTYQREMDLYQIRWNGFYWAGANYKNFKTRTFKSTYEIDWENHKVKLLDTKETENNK
Sequence of native Hla in S. aureus 8325-4 supernatants (Staphylococcus aureus 8325-4 (Q2G1X0 27-319): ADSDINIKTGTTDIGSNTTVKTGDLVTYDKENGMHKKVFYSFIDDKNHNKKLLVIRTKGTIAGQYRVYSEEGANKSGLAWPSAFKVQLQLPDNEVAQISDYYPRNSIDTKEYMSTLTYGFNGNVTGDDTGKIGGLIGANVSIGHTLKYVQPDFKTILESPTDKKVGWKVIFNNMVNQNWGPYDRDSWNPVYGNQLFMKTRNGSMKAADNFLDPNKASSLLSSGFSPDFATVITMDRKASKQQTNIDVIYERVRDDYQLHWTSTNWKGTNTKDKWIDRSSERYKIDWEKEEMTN

B1: YG1 human anti-Hla monoclonal antibody (antibody, V domains shown)
VH: QVQLVQSGAEMQKPGASVKVSCKVTGYALASLSLHWVRQTPGAGLEWLGGLDPGHGETIYAEKLQGRVVMTGDTSTDTAYMQLSSLTSEDTAIYYCASDWLRHGFEFWGQGTTVTVSS
VL: EIVLTQSPATLSVSPGDGATLSCRASQSVSGNLAWYQKKPGQAPRLLIYDTSIRAAGVPPRFSGSGSGTEFTLTISSLQSEDFAVYYCQQYHNLPPLTFGPGTKLEIK
notes: also called YG1 mAb; source: expressed and purified as a full-length human IgG1 antibody
Q: Does B1 bind [1]?
A: Result: binds

Q: Does B1 bind (LukF)?
A: Result: no binding (tested: 1 μg/ml)

Q: Does B1 bind (LukD)?
A: Result: no binding (tested: 1 μg/ml)

Q: Does B1 bind (HlgA)?
A: Result: no binding (tested: 1 μg/ml)

Q: Does B1 bind (LukE)?
A: Result: no binding (tested: 1 μg/ml)

Q: Does B1 bind (HlgC)?
A: Result: no binding (tested: 1 μg/ml)

Q: Does B1 bind (HlgB)?
A: Result: no binding (tested: 1 μg/ml)

Q: Does B1 bind (Hlb)?
A: Result: no binding (tested: 1 μg/ml)
